Test results published in paper PMC3229523, “Identification of Lactoferricin B Intracellular Targets Using an Escherichia coli Proteome Chip” (PLoS ONE, 2011).
Ends that are not written are not given here. * marks the point of attachment. Biotin = O=C1N[C@H]2[C@H](CS[C@H]2CCCCC(=O)*)N1

Tests used:
Experiment in all cases: peptide or protein array; E. coli proteome chip: purified His-tagged proteins printed in duplicate on Fullmoon slides, blocked with 1% BSA; 10 nM N-terminal biotinylated LfcinB with 1% BSA, room temperature, 1 h; detected with DyLight 649-labeled streptavidin, ratio to DyLight 549-labeled anti-His antibody; ProCAT normalisation, local cut-off; triplicate chips
Conditions in all cases: both partners purified
YdhS = target: T1, YdhS (E. coli K-12, UniProt P77148 1-534)
T1 construct: YdhS, E. coli K-12
T1 sequence (looked up): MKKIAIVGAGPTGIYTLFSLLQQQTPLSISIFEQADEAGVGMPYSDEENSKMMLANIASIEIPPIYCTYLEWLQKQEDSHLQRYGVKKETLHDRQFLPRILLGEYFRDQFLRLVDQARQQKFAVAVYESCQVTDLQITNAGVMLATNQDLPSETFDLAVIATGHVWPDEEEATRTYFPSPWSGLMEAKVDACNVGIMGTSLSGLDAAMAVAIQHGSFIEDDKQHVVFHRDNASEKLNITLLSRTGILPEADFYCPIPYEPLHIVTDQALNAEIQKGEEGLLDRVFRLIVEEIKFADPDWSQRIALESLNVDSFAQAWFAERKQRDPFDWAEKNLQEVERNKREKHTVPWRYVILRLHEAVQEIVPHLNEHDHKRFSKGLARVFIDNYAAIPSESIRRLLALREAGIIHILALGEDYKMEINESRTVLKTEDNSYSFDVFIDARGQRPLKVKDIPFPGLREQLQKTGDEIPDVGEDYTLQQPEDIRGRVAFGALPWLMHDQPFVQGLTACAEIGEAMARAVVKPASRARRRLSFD

YhjC = target: T2, YhjC (E. coli K-12, UniProt P37641 1-299)
T2 construct: YhjC, E. coli K-12
T2 sequence (looked up): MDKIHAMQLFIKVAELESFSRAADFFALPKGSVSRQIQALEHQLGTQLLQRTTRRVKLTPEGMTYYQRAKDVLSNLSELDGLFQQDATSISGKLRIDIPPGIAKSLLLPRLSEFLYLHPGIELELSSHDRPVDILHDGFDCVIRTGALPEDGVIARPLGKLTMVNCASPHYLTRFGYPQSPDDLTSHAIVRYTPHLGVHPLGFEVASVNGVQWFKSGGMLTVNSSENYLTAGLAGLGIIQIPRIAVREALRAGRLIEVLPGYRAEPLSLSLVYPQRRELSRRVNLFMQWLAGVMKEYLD

DinG = target: T3, DinG (E. coli K-12, UniProt P27296 1-716)
T3 construct: DinG, E. coli K-12
T3 sequence (looked up): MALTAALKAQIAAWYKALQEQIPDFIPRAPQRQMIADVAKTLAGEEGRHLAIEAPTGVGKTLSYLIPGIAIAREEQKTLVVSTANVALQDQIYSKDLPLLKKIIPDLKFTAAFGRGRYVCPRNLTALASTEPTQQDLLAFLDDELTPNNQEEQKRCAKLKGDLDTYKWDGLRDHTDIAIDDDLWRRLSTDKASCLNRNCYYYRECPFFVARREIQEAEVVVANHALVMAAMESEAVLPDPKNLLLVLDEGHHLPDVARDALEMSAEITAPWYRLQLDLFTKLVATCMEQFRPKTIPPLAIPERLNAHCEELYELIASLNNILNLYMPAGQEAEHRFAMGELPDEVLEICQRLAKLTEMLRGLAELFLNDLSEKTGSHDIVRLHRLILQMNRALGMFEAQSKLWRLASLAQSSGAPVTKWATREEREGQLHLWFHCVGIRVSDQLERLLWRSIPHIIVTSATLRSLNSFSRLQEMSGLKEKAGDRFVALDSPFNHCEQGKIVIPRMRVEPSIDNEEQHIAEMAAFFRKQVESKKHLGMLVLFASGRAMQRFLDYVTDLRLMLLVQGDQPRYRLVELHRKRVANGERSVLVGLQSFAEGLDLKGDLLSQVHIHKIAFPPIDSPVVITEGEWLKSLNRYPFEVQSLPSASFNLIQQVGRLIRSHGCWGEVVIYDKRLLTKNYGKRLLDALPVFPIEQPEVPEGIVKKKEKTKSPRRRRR

GidB = target: T4, GidB (E. coli K-12, UniProt P0A6U5 1-207)
T4 construct: GidB, E. coli K-12
T4 sequence (looked up): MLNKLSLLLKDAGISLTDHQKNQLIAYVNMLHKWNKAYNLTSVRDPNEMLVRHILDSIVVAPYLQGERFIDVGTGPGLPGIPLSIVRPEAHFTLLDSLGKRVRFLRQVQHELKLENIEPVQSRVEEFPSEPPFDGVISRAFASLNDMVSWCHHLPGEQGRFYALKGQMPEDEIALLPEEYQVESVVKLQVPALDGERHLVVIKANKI

RpsB = RpsB (E. coli K-12, UniProt P0A7V0 1-241)

Measured: binding result

B1: N-terminal biotinylated Lactoferricin B (peptide, UniProt P24627 36-60, looked up)
peptide: Biotin-FKCRRWQWRMKKLGAPSITCVRRAF
modifications: ends and bridges not checked
notes: lactoferricin B (LfcinB), cationic antimicrobial peptide of 25 amino acids; also called biotinylated LfcinB; biotin-labeled LfcinB; source: bought: Kelowna Inc
binds: all assays above
